Experiments:
Assay in all cases: Specificity assay, fraction of remaining proteolytic activity
Format in all cases: biochemical
plasma kallikrein = target: T1, plasma kallikrein (Homo sapiens, UniProt P03952); settings: 100 nM inhibitor; 3.5 nM enzyme
T1 construct: Human plasma kallikrein and Factor XIIa were purchased; purchased Enzyme Research Laboratories, Inc. (South Bend, Ind)
Protocol: (§1) Aliquots (30 μL) of various inhibitors diluted to 500 nM were incubated with each protease (100 μL) in the appropriate buffer. After incubation of the substrate/inhibitor mixes at room temperature for 2 h, the appropriate substrate (20 μL) was added, and the absorbance at 405 nm was monitored. Controls lacking inhibitor and enzyme were assayed to measure the uninhibited and substrate hydrolysis rates, respectively. […] The FXIa assay also contained 1 mg/mL BSA. The concentration of FXIa throughout refers to the concentration of active sites. For this experiment, the concentrations of thrombin, TF-FVIIa, FXa, FXIa, FXIIa, and plasmin are 25 approximate and are determined based upon the manufacturers, specifications.
(§2) Serine proteases (1 to 20 nM) were assayed in the presence of 100 nM inhibitor.

TF-FVIIa = target: T2, TF-FVIIa (Homo sapiens, UniProt P08709); settings: 100 nM inhibitor; TF 77 nM, FVIIa 14 nM
T2 construct: purchased Haematologic Technologies Inc. (Essex Jct., VT) for FVIIa; TF made in house; host or cells: TF1-243: E. coli
T2 sequence (P08709 61-212 limits assumed): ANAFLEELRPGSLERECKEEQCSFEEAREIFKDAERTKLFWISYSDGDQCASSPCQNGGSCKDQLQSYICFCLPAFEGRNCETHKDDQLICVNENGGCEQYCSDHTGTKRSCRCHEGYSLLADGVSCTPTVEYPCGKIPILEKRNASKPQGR
T2 sequence (P08709 213-466 limits assumed): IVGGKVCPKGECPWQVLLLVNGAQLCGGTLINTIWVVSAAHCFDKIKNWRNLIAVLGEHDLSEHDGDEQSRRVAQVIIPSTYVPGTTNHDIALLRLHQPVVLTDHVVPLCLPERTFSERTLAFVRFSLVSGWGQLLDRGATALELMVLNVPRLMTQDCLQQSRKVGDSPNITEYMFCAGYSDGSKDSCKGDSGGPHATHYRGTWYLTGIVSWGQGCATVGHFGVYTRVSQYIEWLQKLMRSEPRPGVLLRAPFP
T2 sequence (P13726 33-275 partner limits assumed): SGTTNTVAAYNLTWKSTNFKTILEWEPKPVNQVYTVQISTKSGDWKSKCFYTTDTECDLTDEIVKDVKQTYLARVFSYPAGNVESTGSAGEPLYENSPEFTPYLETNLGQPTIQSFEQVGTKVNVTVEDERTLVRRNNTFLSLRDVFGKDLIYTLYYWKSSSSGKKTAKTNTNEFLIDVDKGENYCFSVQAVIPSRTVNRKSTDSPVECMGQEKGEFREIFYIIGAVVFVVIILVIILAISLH
Protocol: as §1, §2

plasmin = target: T3, plasmin (Homo sapiens, UniProt P00747); settings: 100 nM inhibitor; 32 nM enzyme
T3 construct: Human plasmin, S-2302, S-2251, and S-2366 were purchased from Kabi Vitrum (Sweden); purchased Kabi Vitrum (Sweden)
T3 sequence (P00747 97-580 limits assumed): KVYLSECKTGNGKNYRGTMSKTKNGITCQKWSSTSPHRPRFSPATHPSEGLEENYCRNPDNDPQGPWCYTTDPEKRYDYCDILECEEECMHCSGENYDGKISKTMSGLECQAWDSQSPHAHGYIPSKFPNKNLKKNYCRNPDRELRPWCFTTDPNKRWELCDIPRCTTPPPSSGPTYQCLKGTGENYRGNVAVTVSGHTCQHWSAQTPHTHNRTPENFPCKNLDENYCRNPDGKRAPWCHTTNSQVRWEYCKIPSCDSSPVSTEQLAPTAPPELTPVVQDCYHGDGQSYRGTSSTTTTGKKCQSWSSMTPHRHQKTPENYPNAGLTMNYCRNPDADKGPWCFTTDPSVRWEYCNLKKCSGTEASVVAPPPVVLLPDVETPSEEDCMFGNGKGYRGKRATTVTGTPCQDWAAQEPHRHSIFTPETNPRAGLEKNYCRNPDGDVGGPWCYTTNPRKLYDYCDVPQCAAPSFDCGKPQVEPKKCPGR
T3 sequence (P00747 581-810 limits assumed): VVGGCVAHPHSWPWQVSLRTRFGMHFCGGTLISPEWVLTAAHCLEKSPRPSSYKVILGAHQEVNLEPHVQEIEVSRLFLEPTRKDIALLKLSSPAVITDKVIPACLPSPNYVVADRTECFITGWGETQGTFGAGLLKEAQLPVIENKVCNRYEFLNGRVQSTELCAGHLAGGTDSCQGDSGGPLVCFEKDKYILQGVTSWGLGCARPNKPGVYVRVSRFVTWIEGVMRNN
Protocol: as §1, §2

Factor XIIa = target: T4, Factor XIIa (Homo sapiens, UniProt P00748); settings: 100 nM inhibitor; 14 nM enzyme
T4 construct: purchased Enzyme Research Laboratories, Inc. (South Bend, Ind)
T4 sequence (P00748 20-372 limits assumed): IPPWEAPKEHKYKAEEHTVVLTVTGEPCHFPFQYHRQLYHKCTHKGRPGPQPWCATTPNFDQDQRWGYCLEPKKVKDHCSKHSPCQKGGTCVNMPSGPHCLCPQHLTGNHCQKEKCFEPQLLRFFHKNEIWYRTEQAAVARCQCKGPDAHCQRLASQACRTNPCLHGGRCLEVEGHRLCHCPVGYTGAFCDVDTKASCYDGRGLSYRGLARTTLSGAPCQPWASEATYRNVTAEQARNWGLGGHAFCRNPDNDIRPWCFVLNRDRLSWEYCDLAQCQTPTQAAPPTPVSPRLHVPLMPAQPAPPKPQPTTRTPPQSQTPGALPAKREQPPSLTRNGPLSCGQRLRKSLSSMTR
T4 sequence (P00748 373-615 limits assumed): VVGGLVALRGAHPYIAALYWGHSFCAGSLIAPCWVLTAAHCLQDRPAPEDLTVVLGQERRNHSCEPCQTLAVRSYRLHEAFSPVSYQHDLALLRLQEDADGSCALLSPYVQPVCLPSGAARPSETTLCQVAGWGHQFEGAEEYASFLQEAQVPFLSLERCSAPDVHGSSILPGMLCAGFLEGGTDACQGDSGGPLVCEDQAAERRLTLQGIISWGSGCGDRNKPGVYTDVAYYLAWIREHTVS
Protocol: as §1, §2

thrombin = target: T5, thrombin (Homo sapiens, UniProt P00734); settings: 100 nM inhibitor; 6.2 nM enzyme
T5 construct: purchased Haematologic Technologies Inc. (Essex Jct., VT)
Protocol: as §1, §2

Factor XIa = target: T6, Factor XIa (Homo sapiens, UniProt P03951); settings: 100 nM inhibitor; […] enzyme
T6 construct: purchased Haematologic Technologies Inc. (Essex Jct., VT)
T6 sequence (P03951 19-387 limits assumed): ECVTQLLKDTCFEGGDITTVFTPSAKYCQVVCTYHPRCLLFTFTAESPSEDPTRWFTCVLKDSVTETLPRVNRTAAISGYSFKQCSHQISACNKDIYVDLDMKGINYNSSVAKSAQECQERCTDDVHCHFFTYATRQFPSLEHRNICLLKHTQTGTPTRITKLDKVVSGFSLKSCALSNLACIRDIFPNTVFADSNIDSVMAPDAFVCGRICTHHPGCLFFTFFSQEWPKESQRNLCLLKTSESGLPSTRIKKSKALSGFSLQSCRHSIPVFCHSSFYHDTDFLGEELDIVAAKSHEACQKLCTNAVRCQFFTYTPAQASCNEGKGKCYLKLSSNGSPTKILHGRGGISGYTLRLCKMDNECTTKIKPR
T6 sequence (P03951 388-625 limits assumed): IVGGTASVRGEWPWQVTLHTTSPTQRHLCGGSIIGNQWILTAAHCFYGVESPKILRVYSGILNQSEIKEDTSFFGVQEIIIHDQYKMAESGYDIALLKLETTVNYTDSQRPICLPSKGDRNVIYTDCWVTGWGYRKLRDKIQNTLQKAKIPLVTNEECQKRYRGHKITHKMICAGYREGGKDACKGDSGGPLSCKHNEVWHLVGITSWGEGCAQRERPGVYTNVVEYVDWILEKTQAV
Protocol: as §1, §2

activated protein C = target: T7, activated protein C (Homo sapiens, UniProt P04070); settings: 100 nM inhibitor; 7.6 nM enzyme
T7 construct: purchased Haematologic Technologies Inc. (Essex Jct., VT)
T7 sequence (P04070 43-197 limits assumed): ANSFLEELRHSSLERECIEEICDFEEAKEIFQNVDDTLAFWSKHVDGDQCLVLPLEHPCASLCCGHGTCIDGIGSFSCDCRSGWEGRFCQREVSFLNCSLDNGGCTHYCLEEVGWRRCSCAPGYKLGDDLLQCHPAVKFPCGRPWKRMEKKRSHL
T7 sequence (P04070 212-461 limits assumed): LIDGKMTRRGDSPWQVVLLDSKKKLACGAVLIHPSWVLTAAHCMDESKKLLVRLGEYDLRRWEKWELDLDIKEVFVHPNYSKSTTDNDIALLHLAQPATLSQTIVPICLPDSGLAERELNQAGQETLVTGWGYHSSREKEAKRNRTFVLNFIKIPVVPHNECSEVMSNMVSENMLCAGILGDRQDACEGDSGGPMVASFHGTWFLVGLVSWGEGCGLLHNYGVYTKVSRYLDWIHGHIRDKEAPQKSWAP
Protocol: as §1, §2

Factor Xa = target: T8, Factor Xa (Homo sapiens, UniProt P00742); settings: 100 nM inhibitor; 2.5 nM enzyme
T8 construct: purchased Haematologic Technologies Inc. (Essex Jct., VT)
T8 sequence (P00742 41-179 limits assumed): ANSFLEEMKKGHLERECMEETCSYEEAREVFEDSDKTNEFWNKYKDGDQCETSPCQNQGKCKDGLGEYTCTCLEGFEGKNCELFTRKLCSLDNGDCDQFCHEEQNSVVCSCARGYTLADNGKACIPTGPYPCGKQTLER
T8 sequence (P00742 235-488 limits assumed): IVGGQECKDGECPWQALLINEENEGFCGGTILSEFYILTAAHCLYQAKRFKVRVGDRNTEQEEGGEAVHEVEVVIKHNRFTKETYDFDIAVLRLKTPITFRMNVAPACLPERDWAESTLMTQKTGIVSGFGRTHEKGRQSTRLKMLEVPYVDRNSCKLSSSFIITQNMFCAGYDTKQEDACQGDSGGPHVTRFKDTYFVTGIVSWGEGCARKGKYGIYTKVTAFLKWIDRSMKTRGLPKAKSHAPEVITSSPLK
Protocol: as §1, §2

T1 sequence (P03952 20-390 limits assumed): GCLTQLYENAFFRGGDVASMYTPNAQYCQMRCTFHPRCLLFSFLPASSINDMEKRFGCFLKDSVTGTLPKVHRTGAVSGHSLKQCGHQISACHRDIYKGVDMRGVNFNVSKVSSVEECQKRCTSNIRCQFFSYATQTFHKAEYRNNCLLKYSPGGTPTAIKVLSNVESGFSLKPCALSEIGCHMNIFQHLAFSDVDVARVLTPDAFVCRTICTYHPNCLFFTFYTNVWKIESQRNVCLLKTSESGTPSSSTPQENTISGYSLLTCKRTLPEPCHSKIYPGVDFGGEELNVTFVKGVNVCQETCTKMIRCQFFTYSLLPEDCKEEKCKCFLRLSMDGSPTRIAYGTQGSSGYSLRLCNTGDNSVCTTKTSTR
T1 sequence (P03952 391-638 limits assumed): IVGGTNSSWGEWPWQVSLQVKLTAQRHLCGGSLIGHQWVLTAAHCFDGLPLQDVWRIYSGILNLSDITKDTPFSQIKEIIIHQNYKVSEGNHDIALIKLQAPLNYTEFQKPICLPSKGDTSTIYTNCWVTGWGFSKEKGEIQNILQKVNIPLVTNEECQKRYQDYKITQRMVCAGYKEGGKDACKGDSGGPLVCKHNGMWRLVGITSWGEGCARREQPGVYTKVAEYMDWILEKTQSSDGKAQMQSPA

Substance: KALI-46: APPI Kunitz domain mutant, R1 EGRCRASILR2 FR3 (SEQ ID NO: 33) (VREVCSEQAEEGRCRASILRWYFDVTEGKCAPFFYGGCGGNRNNFDTEEYCAAVCGSA)
- fraction of remaining proteolytic activity, plasma kallikrein (plasma kallikrein): 0.00
- fraction of remaining proteolytic activity, TF·Factor VIIa (TF-FVIIa): 0.86
- fraction of remaining proteolytic activity, plasmin (plasmin): 0.64
- fraction of remaining proteolytic activity, Factor XIIa (Factor XIIa): 0.97
- fraction of remaining proteolytic activity, thrombin (thrombin): 0.99
- fraction of remaining proteolytic activity, Factor XIa (Factor XIa): 0.00
- fraction of remaining proteolytic activity, activated protein C (activated protein C): 0.83

Substance: KALI-48: APPI Kunitz domain mutant, R1 TGHCRAAIPR2 FR3 (SEQ ID NO: 2) (VREVCSEQAETGHCRAAIPRWYFDVTEGKCAPFFYGGCGGNRNNFDTEEYCAAVCGSA)
- fraction of remaining proteolytic activity, plasma kallikrein (plasma kallikrein): 0.00
- fraction of remaining proteolytic activity, TF·Factor VIIa (TF-FVIIa): 0.95
- fraction of remaining proteolytic activity, Factor Xa (Factor Xa): 0.55
- fraction of remaining proteolytic activity, plasmin (plasmin): 0.23
- fraction of remaining proteolytic activity, Factor XIIa (Factor XIIa): 0.99
- fraction of remaining proteolytic activity, thrombin (thrombin): 0.99
- fraction of remaining proteolytic activity, Factor XIa (Factor XIa): 0.01
- fraction of remaining proteolytic activity, activated protein C (activated protein C): 0.92

Substance: KALI-8: APPI Kunitz domain mutant, R1 LGHCRAAIPR2 FR3 (SEQ ID NO: 3) (VREVCSEQAELGHCRAAIPRWYFDVTEGKCAPFFYGGCGGNRNNFDTEEYCAAVCGSA)
- fraction of remaining proteolytic activity, plasma kallikrein (plasma kallikrein): 0.00
- fraction of remaining proteolytic activity, TF·Factor VIIa (TF-FVIIa): 0.94
- fraction of remaining proteolytic activity, plasmin (plasmin): 0.83
- fraction of remaining proteolytic activity, Factor XIIa (Factor XIIa): 1.00
- fraction of remaining proteolytic activity, thrombin (thrombin): 0.99
- fraction of remaining proteolytic activity, Factor XIa (Factor XIa): 0.00
- fraction of remaining proteolytic activity, activated protein C (activated protein C): 0.89

Substance: KALI-13: APPI Kunitz domain mutant, R1 SGHCRAAIPR2 FR3 (SEQ ID NO: 1) (VREVCSEQAESGHCRAAIPRWYFDVTEGKCAPFFYGGCGGNRNNFDTEEYCAAVCGSA)
- fraction of remaining proteolytic activity, plasma kallikrein (plasma kallikrein): 0.00
- fraction of remaining proteolytic activity, TF·Factor VIIa (TF-FVIIa): 0.96
- fraction of remaining proteolytic activity, Factor Xa (Factor Xa): 0.97
- fraction of remaining proteolytic activity, plasmin (plasmin): 0.65
- fraction of remaining proteolytic activity, Factor XIIa (Factor XIIa): 1.00
- fraction of remaining proteolytic activity, thrombin (thrombin): 0.96
- fraction of remaining proteolytic activity, Factor XIa (Factor XIa): 0.01
- fraction of remaining proteolytic activity, activated protein C (activated protein C): 0.90

Substance: KALI-30: APPI Kunitz domain mutant, R1 EGHCRAAILR2 FR3 (SEQ ID NO: 5) (VREVCSEQAEEGHCRAAILRWYFDVTEGKCAPFFYGGCGGNRNNFDTEEYCAAVCGSA)
- fraction of remaining proteolytic activity, plasma kallikrein (plasma kallikrein): 0.00
- fraction of remaining proteolytic activity, Factor Xa (Factor Xa): 0.68
- fraction of remaining proteolytic activity, plasmin (plasmin): 0.53
- fraction of remaining proteolytic activity, Factor XIIa (Factor XIIa): 0.92
- fraction of remaining proteolytic activity, thrombin (thrombin): 1.00
- fraction of remaining proteolytic activity, Factor XIa (Factor XIa): 0.00
- fraction of remaining proteolytic activity, activated protein C (activated protein C): 0.81

— patent US5786328A, “Use of kunitz type plasma kallikrein inhibitors” (Genentech, Inc., priority 1995, dated 1998)
